The values that follow come from US20230407373A1 (priority 2020, published 2023).

Like-named read-outs stand apart in the source and are kept apart here.

What all share (type): binding
For one assay, the system named is SARS-CoV-2 gRNA. As to conditions: […]; LC-MS/MS; Probe I sample (first 199 lines of Table 2).
Assay [1] deals with SARS-CoV-2 gRNA and sgRNAs. As to conditions: for background (unweighted spectral count in control): no-probe control pull-down, used as background for Probe II; for target (unweighted spectral count in RNP capture): Probe II capture, LC-MS/MS LFQ.
For the next assay, the system named is gRNA of HCoV-OC43. As to conditions: for target (spectral count) / background (spectral count): type g_36_m, 36 hpi, Probe I; for target (spectral count): HCoV-OC43-infected HCT-8 cells; for background (spectral count): uninfected-probe control; for target (spectral count, OC43 Probe I RNP capture) / background (spectral count, no-probe control): type n_48_v: 48 hours post-infection; for target (spectral count, OC43 Probe I RNP capture): infected cells, unweighted spectral count; for background (spectral count, no-probe control): no-probe control on infected cells.

Another assay relates to HCoV-OC43 gRNA and sgRNA. The note with it: for target (unweighted spectral count, OC43 Probe II capture) / target (spectral count) / background (spectral count): 36 hpi; for target (unweighted spectral count, OC43 Probe II capture): type n_36_v, FDR<10%; for target (unweighted spectral count, OC43 Probe II capture) / target (unweighted spectral count): tested against no-probe control; for target (unweighted spectral count): OC43 Probe II, infected cells; for target (unweighted spectral count, OC43 Probe II) / background (unweighted spectral count, no-probe control): type n_48_v, 48 hpi; for target (unweighted spectral count, OC43 Probe II): OC43 Probe II capture on infected cells; for background (unweighted spectral count, no-probe control): no-probe control on infected cells; for target (spectral count) / background (spectral count): type s_36_m, Probe II; for target (spectral count): HCoV-OC43-infected HCT-8 cells; for background (spectral count): uninfected-probe control.

B1: HNRNPL: host protein, UniProt P14866 (protein, UniProt P14866 1-589, looked up)
Heterogeneous nuclear …: MSRRLLPRAEKRRRRLEQRQQPDEQRRRSGAMVKMAAAGGGGGGGRYYGGGSEGGRAPKRLKTDNAGDQHGGGGGGGGGAGAAGGGGGGENYDDPHKTPASPVVHIRGLIDGVVEADLVEALQEFGPISYVVVMPKKRQALVEFEDVLGACNAVNYAADNQIYIAGHPAFVNYSTSQKISRPGDSDDSRSVNSVLLFTILNPIYSITTDVLYTICNPCGPVQRIVIFRKNGVQAMVEFDSVQSAQRAKASLNGADIYSGCCTLKIEYAKPTRLNVFKNDQDTWDYTNPNLSGQGDPGSNPNKRQRQPPLLGDHPAEYGGPHGGYHSHYHDEGYGPPPPHYEGRRMGPPVGGHRRGPSRYGPQYGHPPPPPPPPEYGPHADSPVLMVYGLDQSKMNCDRVFNVFCLYGNVEKVKFMKSKPGAAMVEMADGYAVDRAITHLNNNFMFGQKLNVCVSKQPAIMPGQSYGLEDGSCSYKDFSESRNNRFSTPEQAAKNRIQHPSNVLHFFNAPLEVTEENFFEICDELGVKRPSSVKVFSGKSERSSSGLLEWESKSDALETLGFLNHYQMKNPNGPYPYTLKLCFSTAQHAS
With B1, in the assay with SARS-CoV-2 gRNA, the “target (unweighted spectral count of the protein in the RNP capture)” value is recorded as 43. Further, the “background (unweighted spectral count in control)” value in assay [1] worked out at 1. In the assay on gRNA of HCoV-OC43, the “target (spectral count)” value was 59 and the “background (spectral count)” value was 6. Further, in the assay with HCoV-OC43 gRNA and sgRNA, the “target (unweighted spectral count, OC43 Probe II capture)” value was 42; the “target (unweighted spectral count, OC43 Probe II)” value came out at 46; the “background (unweighted spectral count, no-probe control)” value is 2; the “target (spectral count)” value was found to be 42. For the same molecule, in the assay on HCoV-OC43 gRNA and sgRNA, the “background (spectral count)” value is 5. In addition, in the assay with HCoV-OC43 gRNA and sgRNA (12 hpi (type n_12_v)), the “target (unweighted spectral count)” value is recorded as 12. In addition, the “target (unweighted spectral count)” value in the assay with HCoV-OC43 gRNA and sgRNA (24 hpi (type n_24_v)) turned out to be 25.

B2: SERBP1 (protein, UniProt Q8NC51 2-408, looked up)
SERPINE1 mRNA-binding protein …: PGHLQEGFGCVVTNRFDQLFDDESDPFEVLKAAENKKKEAGGGGVGGPGAKSAAQAAAQTNSNAAGKQLRKESQKDRKNPLPPSVGVVDKKEETQPPVALKKEGIRRVGRRPDQQLQGEGKIIDRRPERRPPRERRFEKPLEEKGEGGEFSVDRPIIDRPIRGRGGLGRGRGGRGRGMGRGDGFDSRGKREFDRHSGSDRSSFSHYSGLKHEDKRGGSGSHNWGTVKDELTESPKYIQKQISYNYSDLDQSNVTEETPEGEEHHPVADTENKENEVEEVKEEGPKEMTLDEWKAIQNKDRAKVEFNIRKPNEGADGQWKKGFVLHKSKSEEAHAEDSVMDHHFRKPANDITSQLEINFGDLGRPGRGGRGGRGGRGRGGRPNRGSRTDKSSASAPDVDDPEAFPALA
On to B2, for which the “target (unweighted spectral count of the protein in the RNP capture)” value in the assay on SARS-CoV-2 gRNA is on record as 17. In assay [1], the “target (unweighted spectral count in RNP capture)” value amounted to 30 and the “background (unweighted spectral count in control)” value is 1. In addition, in the assay on gRNA of HCoV-OC43, the “target (spectral count, OC43 Probe I RNP capture)” value came to 19 and the “background (spectral count, no-probe control)” value was determined as 4. Further, in the assay on HCoV-OC43 gRNA and sgRNA, the “target (unweighted spectral count, OC43 Probe II capture)” value is listed as 15; the “target (unweighted spectral count, OC43 Probe II)” value is on record as 18; the “background (unweighted spectral count, no-probe control)” value is on record as 4. In addition, the “target (unweighted spectral count)” value in the assay with HCoV-OC43 gRNA and sgRNA (24 hpi (type n_24_v)) worked out at 6.

B3: PUM1: host protein, UniProt Q14671 (protein, UniProt Q14671 2-1186, looked up)
Pumilio homolog 1: SVACVLKRKAVLWQDSFSPHLKHHPQEPANPNMPVVLTSGTGSQAQPQPAANQALAAGTHSSPVPGSIGVAGRSQDDAMVDYFFQRQHGEQLGGGGSGGGGYNNSKHRWPTGDNIHAEHQVRSMDELNHDFQALALEGRAMGEQLLPGKKFWETDESSKDGPKGIFLGDQWRDSAWGTSDHSVSQPIMVQRRPGQSFHVNSEVNSVLSPRSESGGLGVSMVEYVLSSSPGDSCLRKGGFGPRDADSDENDKGEKKNKGTFDGDKLGDLKEEGDVMDKTNGLPVQNGIDADVKDFSRTPGNCQNSANEVDLLGPNQNGSEGLAQLTSTNGAKPVEDFSNMESQSVPLDPMEHVGMEPLQFDYSGTQVPVDSAAATVGLFDYNSQQQLFQRPNALAVQQLTAAQQQQYALAAAHQPHIGLAPAAFVPNPYIISAAPPGTDPYTAGLAAAATLGPAVVPHQYYGVTPWGVYPASLFQQQAAAAAAATNSANQQTTPQAQQGQQQVLRGGASQRPLTPNQNQQGQQTDPLVAAAAVNSALAFGQGLAAGMPGYPVLAPAAYYDQTGALVVNAGARNGLGAPVRLVAPAPVIISSSAAQAAVAAAAASANGAAGGLAGTTNGPFRPLGTQQPQPQPQQQPNNNLASSSFYGNNSLNSNSQSSSLFSQGSAQPANTSLGFGSSSSLGATLGSALGGFGTAVANSNTGSGSRRDSLTGSSDLYKRTSSSLTPIGHSFYNGLSFSSSPGPVGMPLPSQGPGHSQTPPPSLSSHGSSSSLNLGGLTNGSGRYISAAPGAEAKYRSASSASSLFSPSSTLFSSSRLRYGMSDVMPSGRSRLLEDFRNNRYPNLQLREIAGHIMEFSQDQHGSRFIQLKLERATPAERQLVFNEILQAAYQLMVDVFGNYVIQKFFEFGSLEQKLALAERIRGHVLSLALQMYGCRVIQKALEFIPSDQQNEMVRELDGHVLKCVKDQNGNHVVQKCIECVQPQSLQFIIDAFKGQVFALSTHPYGCRVIQRILEHCLPDQTLPILEELHQHTEQLVQDQYGNYVIQHVLEHGRPEDKSKIVAEIRGNVLVLSQHKFASNVVEKCVTHASRTERAVLIDEVCTMNDGPHSALYTMMKDQYANYVVQKMIDVAEPGQRKIVMHKIRPHIATLRKYTYGKHILAKLEKYYMKNGVDLGPICGPPNGII
As to B3, the “target (unweighted spectral count of the protein in the RNP capture)” value with SARS-CoV-2 gRNA is reported as 6. Besides, in assay [1], the “target (unweighted spectral count in RNP capture)” value came to 20 and the “background (unweighted spectral count in control)” value turned out to be 1. Also, in the assay on gRNA of HCoV-OC43, the “target (spectral count)” value was found to be 11; the “background (spectral count)” value amounted to 1; the “target (spectral count, OC43 Probe I RNP capture)” value is given as 6; the “background (spectral count, no-probe control)” value is listed as 1. Also, in the assay on HCoV-OC43 gRNA and sgRNA, the “target (unweighted spectral count, OC43 Probe II capture)” value stood at 6; the “target (unweighted spectral count, OC43 Probe II)” value turned out to be 6; the “background (unweighted spectral count, no-probe control)” value amounted to 1.

B4: SFPQ: host protein, UniProt P23246 (protein, UniProt P23246 1-707, looked up)
Splicing factor, proline- and …: MSRDRFRSRGGGGGGFHRRGGGGGRGGLHDFRSPPPGMGLNQNRGPMGPGPGQSGPKPPIPPPPPHQQQQQPPPQQPPPQQPPPHQPPPHPQPHQQQQPPPPPQDSSKPVVAQGPGPAPGVGSAPPASSSAPPATPPTSGAPPGSGPGPTPTPPPAVTSAPPGAPPPTPPSSGVPTTPPQAGGPPPPPAAVPGPGPGPKQGPGPGGPKGGKMPGGPKPGGGPGLSTPGGHPKPPHRGGGEPRGGRQHHPPYHQQHHQGPPPGGPGGRSEEKISDSEGFKANLSLLRRPGEKTYTQRCRLFVGNLPADITEDEFKRLFAKYGEPGEVFINKGKGFGFIKLESRALAEIAKAELDDTPMRGRQLRVRFATHAAALSVRNLSPYVSNELLEEAFSQFGPIERAVVIVDDRGRSTGKGIVEFASKPAARKAFERCSEGVFLLTTTPRPVIVEPLEQLDDEDGLPEKLAQKNPMYQKERETPPRFAQHGTFEYEYSQRWKSLDEMEKQQREQVEKNMKDAKDKLESEMEDAYHEHQANLLRQDLMRRQEELRRMEELHNQEMQKRKEMQLRQEEERRRREEEMMIRQREMEEQMRRQREESYSRMGYMDPRERDMRMGGGGAMNMGDPYGSGGQKFPPLGGGGGIGYEANPGVPPATMSGSMMGSDMRTERFGQGGAGPVGGQGPRGMGPGTPAGYGRGREEYEGPNKKPRF
Consider B4, for which the “target (unweighted spectral count of the protein in the RNP capture)” value with SARS-CoV-2 gRNA is 50. For the same molecule, in assay [1], the “target (unweighted spectral count in RNP capture)” value is reported as 38 and the “background (unweighted spectral count in control)” value amounted to 1. In the assay with gRNA of HCoV-OC43, the “target (spectral count)” value worked out at 33; the “background (spectral count)” value turned out to be 7; the “target (spectral count, OC43 Probe I RNP capture)” value is 39; the “background (spectral count, no-probe control)” value is on record as 7. In the assay with HCoV-OC43 gRNA and sgRNA, the “target (unweighted spectral count, OC43 Probe II capture)” value is reported as 36; the “target (unweighted spectral count, OC43 Probe II)” value is reported as 33; the “background (unweighted spectral count, no-probe control)” value is given as 7; the “target (spectral count)” value is given as 36. Further, in the assay on HCoV-OC43 gRNA and sgRNA, the “background (spectral count)” value came to 3. The “target (unweighted spectral count)” value with HCoV-OC43 gRNA and sgRNA (24 hpi (type n_24_v)) came to 16.

B5: HNRNPA1 (protein, UniProt P09651 1-372, looked up)
Heterogeneous nuclear …: MSKSESPKEPEQLRKLFIGGLSFETTDESLRSHFEQWGTLTDCVVMRDPNTKRSRGFGFVTYATVEEVDAAMNARPHKVDGRVVEPKRAVSREDSQRPGAHLTVKKIFVGGIKEDTEEHHLRDYFEQYGKIEVIEIMTDRGSGKKRGFAFVTFDDHDSVDKIVIQKYHTVNGHNCEVRKALSKQEMASASSSQRGRSGSGNFGGGRGGGFGGNDNFGRGGNFSGRGGFGGSRGGGGYGGSGDGYNGFGNDGGYGGGGPGYSGGSRGYGSGGQGYGNQGSGYGGSGSYDSYNNGGGGGFGGGSGSNFGGGGSYNDFGNYNNQSSNFGPMKGGNFGGRSSGPYGGGGQYFAKPRNQGGYGGSSSSSSYGSGRRF
As for B5, the “target (unweighted spectral count of the protein in the RNP capture)” value in the assay on SARS-CoV-2 gRNA was 97. Besides, the “target (unweighted spectral count in RNP capture)” value in assay [1] was found to be 74. In addition, in the assay with gRNA of HCoV-OC43, the “target (spectral count, OC43 Probe I RNP capture)” value is listed as 82 and the “background (spectral count, no-probe control)” value was found to be 7. In addition, in the assay with HCoV-OC43 gRNA and sgRNA, the “target (unweighted spectral count, OC43 Probe II capture)” value is reported as 39; the “target (unweighted spectral count, OC43 Probe II)” value is 53; the “background (unweighted spectral count, no-probe control)” value stood at 7. Moreover, the “target (unweighted spectral count)” value in the assay on HCoV-OC43 gRNA and sgRNA (12 hpi (type n_12_v)) was 24. Also, in the assay with HCoV-OC43 gRNA and sgRNA (24 hpi (type n_24_v)), the “target (unweighted spectral count)” value was found to be 31.
